Source: patent US6495346

What was measured:
Test in all cases: cell-based or functional assay
LCK-Gal4 = LCK-Gal4 (UniProt P04386)
m-fos-Gal4 (SV40) = biological target: m-fos-Gal4 (SV40)
wt-fos-Gal4 (SV40) = biological target: wt-fos-Gal4 (SV40)

Chain of m-jun-VP16 (P06492 411-455, tags or fused parts left off): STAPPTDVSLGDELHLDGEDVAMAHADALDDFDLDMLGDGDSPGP
Chain of wt-jun-VP16 (P06492 411-455, tags or fused parts left off): as above
Chain of CD4-VP16 (P06492 whole entry): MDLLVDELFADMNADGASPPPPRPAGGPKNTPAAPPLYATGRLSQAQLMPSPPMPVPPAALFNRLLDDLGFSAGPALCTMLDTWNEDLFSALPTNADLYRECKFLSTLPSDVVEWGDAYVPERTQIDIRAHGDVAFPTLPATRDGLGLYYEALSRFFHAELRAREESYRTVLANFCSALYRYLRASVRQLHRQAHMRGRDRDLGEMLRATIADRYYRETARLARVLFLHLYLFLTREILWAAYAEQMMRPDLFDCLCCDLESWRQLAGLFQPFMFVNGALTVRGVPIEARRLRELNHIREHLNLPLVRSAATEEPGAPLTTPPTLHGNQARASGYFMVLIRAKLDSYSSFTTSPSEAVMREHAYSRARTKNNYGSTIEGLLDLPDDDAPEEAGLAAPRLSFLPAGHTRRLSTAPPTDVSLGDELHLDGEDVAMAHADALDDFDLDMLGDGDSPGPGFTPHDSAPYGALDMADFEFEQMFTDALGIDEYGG

In the case of CD4-VP16 (from UniProt P06492 406-488), the Luciferase values (RLU), MeWo cells, G0/G1-synchronized cells, 10xBS Gal4-SV40 promoter (Tyr-LCK-Gal4-CycACD4-VP16) (LCK-Gal4) is reported as 5990 RLU and the Luciferase values (RLU), MeWo cells, proliferating cells, 10xBS Gal4-SV40 promoter (Tyr-LCK-Gal4-CycACD4-VP16) (LCK-Gal4) is reported as 72400 RLU.
In the case of “m-jun-VP16 (from UniProt P06492 411-455; P05412 276-312)”, the Luciferase values (RLU), MeWo cells, G0/G1-synchronized cells, 10xBS Gal4-SV40 promoter (m-fos-Gal4 (SV40)) is reported as 271 RLU, the Luciferase values (RLU), MeWo cells, G0/G1-synchronized cells, 10xBS Gal4-SV40 promoter, both subunits on one plasmid (Tyr-m-fos-CycA-m-jun) (m-fos-Gal4 (SV40)) is reported as 12700 RLU and the Luciferase values (RLU), MeWo cells, proliferating cells, 10xBS Gal4-SV40 promoter (m-fos-Gal4 (SV40)) is reported as 18300 RLU. For the same substance, the Luciferase values (RLU), MeWo cells, proliferating cells, 10xBS Gal4-SV40 promoter, both subunits on one plasmid (Tyr-m-fos-CycA-m-jun) (m-fos-Gal4 (SV40)) was 1.02e+06 RLU, the Luciferase values (RLU), MeWo cells, G0/G1-synchronized cells, 10xBS Gal4-SV40 promoter (wt-fos-Gal4 (SV40)) was 224 RLU and the Luciferase values (RLU), MeWo cells, proliferating cells, 10xBS Gal4-SV40 promoter (wt-fos-Gal4 (SV40)) was 290 RLU.
With “wt-jun-VP16 (from UniProt P06492 411-455; P05412 276-312)” the Luciferase values (RLU), MeWo cells, G0/G1-synchronized cells, 10xBS Gal4-SV40 promoter (m-fos-Gal4 (SV40)) was 283 RLU and the Luciferase values (RLU), MeWo cells, proliferating cells, 10xBS Gal4-SV40 promoter (m-fos-Gal4 (SV40)) was 284 RLU.
